Assay results taken from US10919943B2, “Mutant proteins enabling agrochemical control of plant gene expression” (The Regents of the University of California, priority 2016, dated 2021).

B1: PYR1*^-MANDI: PYR1 mutant with 9 mutations, most sensitive to mandipropamid (protein, listed as Arabidopsis thaliana)
chain: MPSELTPEERSELKNSIAEFHTYQLDPGSCSSLHAQRIHAPPELVWSIVRRFDKPQTHRHFIKSCSVEQNFEMRVGCTRDIIVISGLPANTSTERLDILDDERRVTGASIIGGEHRLTNYKGVTTVHRFEKENRIWTVVLESYVVDMPEGNSEDDTRIVVDDVVKLNLQKLATVAEAMARNSGDGSGSQVT

How the values were obtained:
pUAS_GFP_mandi = assay: Mandipropamid control of transcription, pUAS_GFP_mandi transient assay, anti-GFP Western blot; format: in vivo, N. benthamiana; conditions: 50 μM mandipropamid, 24 hours; FIG. 14
Experimental: To establish if the orthogonal mandipropamid response module could be used to control transcriptional responses in vivo, we designed an experimental system where PYR1*^-MANDI was fused to the GAL4 AD, and HAB1* fused to its BD. Nuclear export sequences were added to the BD-HAB1* component to reduce its access to the nucleus in the absence of mandipropamid and thereby reduce background transcription from the UAS. The constructs were assembled into a plant transformation vector along with a GAL4-responsive UAS in front of a CaMV minimal promoter driving GFP. The plant transformation vector used was a derivative of pCB308 (Xiang, Han, Lutziger, Wang, & Oliver, 1999) in which a kanamycin resistance marker cassette replaces the vector's centrally located uidA and bar expression cassettes. […]
The resultant construct (pUAS_GFP_mandi) was tested using transient assays in N. benthamiana, as described above. […] 24 hours later, leaf tissue was collected, frozen in liquid N2, and homogenized by bead beating using Precellys instrument (Bertin Technologies), for 6000 rpm for 30 seconds and then resuspended in SDS sample buffer containing protease inhibitor, separated by SDS-PAGE, electro-blotted onto nitrocellulose membrane and detected using an anti-GFP antibody as described in Example 4 above.

HAB1^!-2 = assay: Yeast two hybrid, mandipropamid-promoted interaction of PYR1 variants with HAB1^!-2; format: cell-based
Source text: To engineer orthogonal mandipropamid responsiveness, we introduced the PYR1^! mutation into the PYR1^MANDI receptor to create a septuple mutant called PYR1^!-MANDI (PYR1^Y58H;K59R;V81I;F108A;S122G;F159L;T162D). This mutant interacts with HAB1^! and HAB^!-2 in response to low μM mandipropamid in yeast two-hybrid assays, but is ˜100-fold less sensitive than the PYR1^MANDI/HAB1 interaction, which responds to concentrations in the low nM range (FIG. 3).
To improve sensitivity, we mutagenized ligand contacting and interface residues in PYR1^!-MANDI using NNK primers, pooled the mutant libraries, and used the mutagenized receptors in selection experiments using to identify enhancer mutations. The NNK mutagenesis screen targeted the following residues: P55, H60, F61, I62, K63, V83, S85, G86, L87, P88, A89, S92, E94, I110, H115, R116, L117, Y120, E141, P148, G150, N151, D154, D155, T156, M158, A160, V163, V164, L166, N167, and K170. […] Since M158 and A160 flank the […] mutation present in PYR1^MANDI, we inferred that the closely located orthogonalizing T162D mutation in PYR1^!-MANDI may have reduced mandipropamid sensitivity by altering the local structure of the C-terminal α3-helix, which participates in ligand-induced conformational changes needed for PP2C binding (Nishimura et al., 2009). We therefore simultaneously mutagenized positions M158, F159 and A160 using a primer with degenerate NNK codons at all three positions. F159 was included in this mutagenesis because we have previously observed that multiple substitutions at F159 (A,C,I,L,M,T, or V) are permissive for mandipropamid responsiveness (S. Y. Park et al., n.d.), and sought to test whether residues other than leucine at position 159 might function better in the context of simultaneous changes to both A160 and M158. The mutagenic primer was used in QuickChange mutagenesis reactions using pBD-PYR1^!-MANDI template, and a library of ˜12,000 clones was generated. Plasmid DNA for the library was prepared from pooled E. coli transformants, and subsequently transformed into S. cerevisiae strain MAV99 harboring pACT-HAB1^!-2. ˜20,000 yeast transformants were generated, pooled, and plated onto SD(-Leu,-Trp) agar media supplemented with 0.1% fluorotic acid (to select against mutants that interact in a ligand-independent fashion). The surviving cells were collected and plated onto SD(Leu,-Trp,-Ura) plates supplemented with 50 nM mandipropamid. The colonies displaying the best uracil-independent growth were isolated and retested on different mandipropamid concentrations and then stained in β-galactosidase assays to rank their relative strength.

Molecule	GFP production (pUAS_GFP_mandi)	mandipropamid concentration to which the interaction responds (HAB1^!-2; FIG. 3, FIG. 4)	relative mandipropamid sensitivity among selected mutants (HAB1^!-2; β-galactosidase assays on different mandipropamid concentrations)
C#CCOc1ccc(CCNC(=O)C(OCC#C)c2ccc(Cl)cc2)cc1OC (stereo not drawn) [mandipropamid]	mandipropamid inducible GFP production	–	–
B1	–	nM levels	most sensitive mutant
